± gives the uncertainty stated by the source.
Key:
[1] = melting temperature (ThermoFMN); higher = more thermostable
Method: (§1)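 Purified His-tagged ene reductases (1 mg/ml) in 50 mM sodium phosphate pH 7.4 with 0-30% (v/v) organic co-solvent. Melting temperature was measured by the ThermoFMN assay (FMN fluorescence, 20-90 °C at 1 °C/min, inflection point, triplicate). Specific initial activity was measured with 10 mM cyclohex-2-enone and 0.2 mM NAD(P)H (NADH for LacER) as A340 depletion, at room temperature (DMSO, 2-propanol, n-propanol) or 25 °C (EtOH, MeOH), in triplicate. The TsOYE Tm is above the 90 °C measurement range.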

[2] = specific initial activity, cyclohex-2-enone reduction (U mg-1); higher = more active
Method: as §1, with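 “reductases” for “reductases (1 mg/ml)”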

[3] = co-solvent: 2-propanol, co-solvent concentration (% v/v): 0
[4] = co-solvent: 2-propanol, co-solvent concentration (% v/v): 5
[5] = co-solvent: 2-propanol, co-solvent concentration (% v/v): 10
[6] = co-solvent: 2-propanol, co-solvent concentration (% v/v): 15
[7] = co-solvent: 2-propanol, co-solvent concentration (% v/v): 20
[8] = co-solvent: 2-propanol, co-solvent concentration (% v/v): 25
[9] = co-solvent: 2-propanol, co-solvent concentration (% v/v): 30
[10] = co-solvent: dimethyl sulfoxide, co-solvent concentration (% v/v): 0
[11] = co-solvent: dimethyl sulfoxide, co-solvent concentration (% v/v): 5
[12] = co-solvent: dimethyl sulfoxide, co-solvent concentration (% v/v): 10
[13] = co-solvent: dimethyl sulfoxide, co-solvent concentration (% v/v): 15
[14] = co-solvent: dimethyl sulfoxide, co-solvent concentration (% v/v): 20
[15] = co-solvent: dimethyl sulfoxide, co-solvent concentration (% v/v): 25
[16] = co-solvent: dimethyl sulfoxide, co-solvent concentration (% v/v): 30
[17] = co-solvent: ethanol, co-solvent concentration (% v/v): 0
[18] = co-solvent: ethanol, co-solvent concentration (% v/v): 5
[19] = co-solvent: ethanol, co-solvent concentration (% v/v): 10
[20] = co-solvent: ethanol, co-solvent concentration (% v/v): 15
[21] = co-solvent: ethanol, co-solvent concentration (% v/v): 20
[22] = co-solvent: ethanol, co-solvent concentration (% v/v): 25
[23] = co-solvent: ethanol, co-solvent concentration (% v/v): 30
[24] = co-solvent: methanol, co-solvent concentration (% v/v): 0
[25] = co-solvent: methanol, co-solvent concentration (% v/v): 5
[26] = co-solvent: methanol, co-solvent concentration (% v/v): 10
[27] = co-solvent: methanol, co-solvent concentration (% v/v): 15
[28] = co-solvent: methanol, co-solvent concentration (% v/v): 20
[29] = co-solvent: methanol, co-solvent concentration (% v/v): 25
[30] = co-solvent: methanol, co-solvent concentration (% v/v): 30
[31] = co-solvent: n-propanol, co-solvent concentration (% v/v): 0
[32] = co-solvent: n-propanol, co-solvent concentration (% v/v): 5
[33] = co-solvent: n-propanol, co-solvent concentration (% v/v): 10
[34] = co-solvent: n-propanol, co-solvent concentration (% v/v): 15
[35] = co-solvent: n-propanol, co-solvent concentration (% v/v): 20
[36] = co-solvent: n-propanol, co-solvent concentration (% v/v): 25
[37] = co-solvent: n-propanol, co-solvent concentration (% v/v): 30

Q: Which melting temperature [1, 3] does the source give for “MARKLFTPITIKDMTLKNRIVMSPMCMYSSHEKDGKLTPFHMAHYISRAIGQVGLIIVEASAVNPQGRITDQDLGIWSDEHIEGFAKLTEQVKEQGSKIGIQLAHAGRKAELEGDIFAPSAIAFDEQSATPVEMSAEKVKETVQEFKQAAARAKEAGFDVIEIHAAHGYLIHEFLSPLSNHRTDEYGGSPENRYRFLREIIDEVKQVWDGPLFVRVSASDYTDKGLDIADHIGFAKWMKEQGVDLIDCSSGALVHADINVFPGYQVSFAEKIREQADMATGAVGMITDGSMAEEILQNGRADLIFIGRELLRDPFFARTAAKQLNTEIPAPVQYERGW” here?
A: 50.7 ± 0.58 °C

Q: And the melting temperature [1, 4]?
A: 40 ± 1 °C

Q: What about the melting temperature [1, 5] of the same sequence?
A: 36.3 ± 0.58 °C

Q: What about the melting temperature [1, 6] of the same sequence?
A: 34 ± 1 °C

Q: What about the melting temperature [1, 7] of the same sequence?
A: 31.3 ± 0.58 °C

Q: What about the melting temperature [1, 8] of the same sequence?
A: 27.3 ± 0.58 °C

Q: What about the melting temperature [1, 9] of the same sequence?
A: 24.3 ± 3.8 °C

Q: What about the melting temperature [1, 10] of the same sequence?
A: 51 °C

Q: And the melting temperature [1, 11]?
A: 49.3 ± 0.58 °C

Q: And the melting temperature [1, 12]?
A: 48 °C

Q: What about the melting temperature [1, 13] of the same sequence?
A: 46.7 ± 0.58 °C

Q: What about the melting temperature [1, 14] of the same sequence?
A: 46 °C

Q: What about the melting temperature [1, 15] of the same sequence?
A: 45 °C

Q: And the melting temperature [1, 16]?
A: 44 °C

Q: What about the melting temperature [1, 17] of the same sequence?
A: 51 °C

Q: And the melting temperature [1, 18]?
A: 45 ± 1.7 °C

Q: And the melting temperature [1, 19]?
A: 42.3 ± 0.58 °C

Q: And the melting temperature [1, 20]?
A: 38.3 ± 0.58 °C

Q: And the melting temperature [1, 21]?
A: 35 ± 1.7 °C

Q: What about the melting temperature [1, 22] of the same sequence?
A: 33 ± 1 °C

Q: What about the melting temperature [1, 23] of the same sequence?
A: 31 °C

Q: What about the melting temperature [1, 24] of the same sequence?
A: 51 °C

Q: What about the melting temperature [1, 25] of the same sequence?
A: 48.3 ± 0.58 °C

Q: And the melting temperature [1, 26]?
A: 43.3 ± 1.5 °C

Q: And the melting temperature [1, 27]?
A: 40 ± 1.7 °C

Q: What about the melting temperature [1, 28] of the same sequence?
A: 39.3 ± 1.1 °C

Q: What about the melting temperature [1, 29] of the same sequence?
A: 36.7 ± 0.58 °C

Q: What about the melting temperature [1, 30] of the same sequence?
A: 33 ± 1 °C

Q: And the melting temperature [1, 31]?
A: 51 °C

Q: And the melting temperature [1, 32]?
A: 43.3 ± 1.1 °C

Q: And the melting temperature [1, 33]?
A: 35.3 ± 0.58 °C

Q: And the melting temperature [1, 34]?
A: 29.7 ± 0.58 °C

Q: What about the melting temperature [1, 35] of the same sequence?
A: 28.3 ± 0.58 °C

Q: What about the melting temperature [1, 36] of the same sequence?
A: 27.7 ± 0.58 °C

Q: What about the melting temperature [1, 37] of the same sequence?
A: 26.7 ± 0.58 °C

Q: And the specific initial activity [2, 3]?
A: 0.49 ± 0.07

Q: What about the specific initial activity [2, 4] of the same sequence?
A: 0.34 ± 0.03

Q: What about the specific initial activity [2, 5] of the same sequence?
A: 0.21 ± 0.01

Q: And the specific initial activity [2, 6]?
A: 0.16 ± 0.05

Q: And the specific initial activity [2, 7]?
A: 0.11 ± 0.07

Q: What about the specific initial activity [2, 8] of the same sequence?
A: 0.14 ± 0.03

Q: And the specific initial activity [2, 9]?
A: 0.06 ± 0.09

Q: And the specific initial activity [2, 10]?
A: 0.52 ± 0.07

Q: And the specific initial activity [2, 11]?
A: 0.4 ± 0.01

Q: And the specific initial activity [2, 12]?
A: 0.33 ± 0.01

Q: And the specific initial activity [2, 13]?
A: 0.25 ± 0.01

Q: And the specific initial activity [2, 14]?
A: 0.17 ± 0.02

Q: And the specific initial activity [2, 15]?
A: 0.1 ± 0.01

Q: And the specific initial activity [2, 16]?
A: 0.05 ± 0.05

Q: What about the specific initial activity [2, 17] of the same sequence?
A: 0.46 ± 0.03

Q: And the specific initial activity [2, 18]?
A: 0.33 ± 0.01

Q: And the specific initial activity [2, 19]?
A: 0.21 ± 0.03

Q: And the specific initial activity [2, 20]?
A: 0.07 ± 0.02

Q: What about the specific initial activity [2, 21] of the same sequence?
A: 0.03 ± 0.01

Q: What about the specific initial activity [2, 22] of the same sequence?
A: 0.03 ± 0.01

Q: And the specific initial activity [2, 23]?
A: 0.02 ± 0.01

Q: What about the specific initial activity [2, 24] of the same sequence?
A: 0.51 ± 0.12

Q: And the specific initial activity [2, 25]?
A: 0.39 ± 0.01

Q: What about the specific initial activity [2, 26] of the same sequence?
A: 0.3 ± 0.01

Q: And the specific initial activity [2, 27]?
A: 0.13 ± 0.02

Q: And the specific initial activity [2, 28]?
A: 0.12 ± 0.09

Q: And the specific initial activity [2, 29]?
A: 0.07 ± 0.05

Q: And the specific initial activity [2, 30]?
A: 0.05 ± 0.03

Q: And the specific initial activity [2, 31]?
A: 0.5 ± 0.12

Q: And the specific initial activity [2, 32]?
A: 0.25 ± 0.02

Q: And the specific initial activity [2, 33]?
A: 0.17 ± 0.01

Q: And the specific initial activity [2, 34]?
A: 0.12 ± 0.01

Q: What about the specific initial activity [2, 35] of the same sequence?
A: 0.05 ± 0.03

Q: What about the specific initial activity [2, 36] of the same sequence?
A: 0 ± 0.03

Q: And the specific initial activity [2, 37]?
A: 0 ± 0.08
